Our source for the Km, kcat and kcat/Km values is PMC5581740.

Broadly, the Km is the concentration of substrate that gives half-maximal velocity. As a reminder, the kcat is the maximal rate divided by the concentration of active sites. What is called kcat/Km is the turnover number divided by the Michaelis constant.

The data set deals with Cc1cn([C@H]2C[C@H](O)[C@@H](COP(=O)(O)OP(=O)(O)O[C@H]3O[C@H](C)[C@H](O)[C@H](N)[C@H]3O)O2)c(=O)[nH]c1=O. Kind of data set: purified protein. The settings on record: 5 mM N10-formyl-THF, 50 mM HEPPS pH 8.0, 0.20 uM enzyme.

For FdtF (Salmonella enterica), the Km is 100 ± 10 µM, the kcat was found to be 15.5 ± 0.8 s⁻¹ and the specificity constant (kcat/Km) is 160000 ± 18000 M⁻¹ s⁻¹.
